Test results: patent US20200262877A1, “ION CHANNEL-BINDING PEPTIDES AND METHODS OF USE THEREOF” (priority 2017, published 2020)

How the values were obtained:
GABA = assay: Ion channel panel (IonWorks Barracuda): GABA; type: cell-based; details: 100% = no change, <100% = inhibition
How it was run: (§1)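 Transfected HEK293 or CHO cells were exposed for at least 5 min to peptides at 200 nM and 20 μM final, tested in duplicate, in HEPES-buffered physiological saline. Activation was taken as peptide-plus-agonist current over control current ×100, and inhibition as 1 minus that ratio ×100. Each channel's control was its own reference compound.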

Kir2.1 = target: T1, Kir2.1 (Homo sapiens, UniProt P63252); assay: Ion channel panel (IonWorks Barracuda): Kir2.1; type: cell-based; details: 100% = no change, <100% = inhibition
T1 construct: host or cells: HEK293 or CHO
How it was run: as §1

α4β2 = target: T2, α4β2 (Homo sapiens, UniProt P17787+P43681); assay: Ion channel panel (IonWorks Barracuda): α4β2; type: cell-based; details: 100% = no change, <100% = inhibition
T2 construct: host or cells: HEK293 or CHO
How it was run: as §1

Nav1.7 = target: T3, Nav1.7 (Homo sapiens, UniProt Q15858); assay: cell-based; type: cell-based; details: 100% = no change; for Activity of Nav1.7 with peptide, expressed as a percentage of the reference compound: peptide at 0.2 μM; for Activity of Nav1.7 with peptide (percentage of the reference compound): peptide at 20 μM
T3 construct: host or cells: HEK293 or CHO

Nav1.5 = Nav1.5 (Homo sapiens, UniProt Q14524); assay: in vitro; details: 100% = no change; for Activity of Nav1.5 with peptide, expressed as a percentage of the reference compound: peptide at 0.2 μM; for Activity of Nav1.5 with peptide (percentage of the reference compound): peptide at 20 μM
How it was run: as §1

hERG = hERG (Homo sapiens, UniProt Q12809); assay: in vitro; details: 100% = no change, <100% = inhibition
How it was run: as §1

α3β4 = target: T4, α3β4 (Homo sapiens, UniProt P30926+P32297); assay: Ion channel panel (IonWorks Barracuda): α3β4; type: cell-based; details: 100% = no change, <100% = inhibition
T4 construct: host or cells: HEK293 or CHO
How it was run: as §1

NR2A = target: T5, NR2A (Homo sapiens, UniProt Q12879); assay: Ion channel panel (IonWorks Barracuda): NR2A; type: cell-based; details: 100% = no change, <100% = inhibition
T5 construct: host or cells: HEK293 or CHO
How it was run: as §1

Kv1.3 = target: T6, Kv1.3 (Homo sapiens, UniProt P22001); assay: cell-based; type: cell-based; details: 100% = no change, <100% = inhibition
T6 construct: host or cells: HEK293 or CHO
How it was run: as §1

Kv1.1 = target: T7, Kv1.1 (Homo sapiens, UniProt Q09470); assay: cell-based; type: cell-based; details: 100% = no change, <100% = inhibition
T7 construct: host or cells: HEK293 or CHO
How it was run: as §1

Kv1.2 = target: T8, Kv1.2 (Homo sapiens, UniProt P16389); assay: cell-based; type: cell-based; details: 100% = no change, <100% = inhibition
T8 construct: host or cells: HEK293 or CHO
How it was run: as §1

NR2B = target: T9, NR2B (Homo sapiens, UniProt Q13224); assay: Ion channel panel (IonWorks Barracuda): NR2B; type: cell-based; details: 100% = no change, <100% = inhibition
T9 construct: host or cells: HEK293 or CHO
How it was run: as §1

5HT3a = target: T10, 5HT3a (Homo sapiens, UniProt P46098); assay: Ion channel panel (IonWorks Barracuda): 5HT3a; type: cell-based
T10 construct: host or cells: HEK293 or CHO
T10 sequence (P46098 whole entry, looked up): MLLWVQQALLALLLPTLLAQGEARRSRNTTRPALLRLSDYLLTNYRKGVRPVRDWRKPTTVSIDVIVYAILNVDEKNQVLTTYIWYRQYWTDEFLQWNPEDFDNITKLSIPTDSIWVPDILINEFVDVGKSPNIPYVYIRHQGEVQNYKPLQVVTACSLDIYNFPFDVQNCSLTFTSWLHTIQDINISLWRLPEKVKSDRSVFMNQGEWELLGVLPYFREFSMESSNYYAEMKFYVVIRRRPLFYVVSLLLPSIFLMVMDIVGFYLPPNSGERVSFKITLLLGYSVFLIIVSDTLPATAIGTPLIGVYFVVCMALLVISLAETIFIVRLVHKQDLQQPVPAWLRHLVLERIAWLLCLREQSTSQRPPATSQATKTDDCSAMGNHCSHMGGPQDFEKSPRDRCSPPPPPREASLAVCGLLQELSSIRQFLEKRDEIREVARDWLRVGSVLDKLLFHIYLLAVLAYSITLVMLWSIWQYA
How it was run: as §1

TRPA1 = target: T11, TRPA1 (Homo sapiens, UniProt O75762); assay: Ion channel panel (IonWorks Barracuda): TRPA1; type: cell-based; details: 100% = no change, <100% = inhibition
T11 construct: host or cells: HEK293 or CHO
How it was run: as §1

Kv2.1 = target: T12, Kv2.1 (Homo sapiens, UniProt Q14721); assay: cell-based; details: 100% = no change, <100% = inhibition
T12 construct: host or cells: HEK293 or CHO
How it was run: as §1

Cav2.2 = target: T13, Cav2.2 (Homo sapiens, UniProt Q00975); assay: cell-based; details: 100% = no change, <100% = inhibition
T13 construct: host or cells: HEK293 or CHO
How it was run: as §1

Cav2.1 = target: T14, Cav2.1 (Homo sapiens, UniProt O00555); assay: cell-based; details: 100% = no change, <100% = inhibition
T14 construct: host or cells: HEK293 or CHO
How it was run: as §1

TRPV1 = target: T15, TRPV1 (Homo sapiens, UniProt Q8NER1); assay: Ion channel panel (IonWorks Barracuda): TRPV1; type: cell-based; details: 100% = no change, <100% = inhibition
T15 construct: host or cells: HEK293 or CHO
How it was run: as §1

[1] = first of two Nav1.7 columns (probably TP1)
[2] = second of two Nav1.7 columns (probably TP2)
[3] = first of two Nav1.5 columns (probably TP1)
[4] = second of two Nav1.5 columns (probably TP2)

Chain of Nav1.5 (Q14524 whole entry): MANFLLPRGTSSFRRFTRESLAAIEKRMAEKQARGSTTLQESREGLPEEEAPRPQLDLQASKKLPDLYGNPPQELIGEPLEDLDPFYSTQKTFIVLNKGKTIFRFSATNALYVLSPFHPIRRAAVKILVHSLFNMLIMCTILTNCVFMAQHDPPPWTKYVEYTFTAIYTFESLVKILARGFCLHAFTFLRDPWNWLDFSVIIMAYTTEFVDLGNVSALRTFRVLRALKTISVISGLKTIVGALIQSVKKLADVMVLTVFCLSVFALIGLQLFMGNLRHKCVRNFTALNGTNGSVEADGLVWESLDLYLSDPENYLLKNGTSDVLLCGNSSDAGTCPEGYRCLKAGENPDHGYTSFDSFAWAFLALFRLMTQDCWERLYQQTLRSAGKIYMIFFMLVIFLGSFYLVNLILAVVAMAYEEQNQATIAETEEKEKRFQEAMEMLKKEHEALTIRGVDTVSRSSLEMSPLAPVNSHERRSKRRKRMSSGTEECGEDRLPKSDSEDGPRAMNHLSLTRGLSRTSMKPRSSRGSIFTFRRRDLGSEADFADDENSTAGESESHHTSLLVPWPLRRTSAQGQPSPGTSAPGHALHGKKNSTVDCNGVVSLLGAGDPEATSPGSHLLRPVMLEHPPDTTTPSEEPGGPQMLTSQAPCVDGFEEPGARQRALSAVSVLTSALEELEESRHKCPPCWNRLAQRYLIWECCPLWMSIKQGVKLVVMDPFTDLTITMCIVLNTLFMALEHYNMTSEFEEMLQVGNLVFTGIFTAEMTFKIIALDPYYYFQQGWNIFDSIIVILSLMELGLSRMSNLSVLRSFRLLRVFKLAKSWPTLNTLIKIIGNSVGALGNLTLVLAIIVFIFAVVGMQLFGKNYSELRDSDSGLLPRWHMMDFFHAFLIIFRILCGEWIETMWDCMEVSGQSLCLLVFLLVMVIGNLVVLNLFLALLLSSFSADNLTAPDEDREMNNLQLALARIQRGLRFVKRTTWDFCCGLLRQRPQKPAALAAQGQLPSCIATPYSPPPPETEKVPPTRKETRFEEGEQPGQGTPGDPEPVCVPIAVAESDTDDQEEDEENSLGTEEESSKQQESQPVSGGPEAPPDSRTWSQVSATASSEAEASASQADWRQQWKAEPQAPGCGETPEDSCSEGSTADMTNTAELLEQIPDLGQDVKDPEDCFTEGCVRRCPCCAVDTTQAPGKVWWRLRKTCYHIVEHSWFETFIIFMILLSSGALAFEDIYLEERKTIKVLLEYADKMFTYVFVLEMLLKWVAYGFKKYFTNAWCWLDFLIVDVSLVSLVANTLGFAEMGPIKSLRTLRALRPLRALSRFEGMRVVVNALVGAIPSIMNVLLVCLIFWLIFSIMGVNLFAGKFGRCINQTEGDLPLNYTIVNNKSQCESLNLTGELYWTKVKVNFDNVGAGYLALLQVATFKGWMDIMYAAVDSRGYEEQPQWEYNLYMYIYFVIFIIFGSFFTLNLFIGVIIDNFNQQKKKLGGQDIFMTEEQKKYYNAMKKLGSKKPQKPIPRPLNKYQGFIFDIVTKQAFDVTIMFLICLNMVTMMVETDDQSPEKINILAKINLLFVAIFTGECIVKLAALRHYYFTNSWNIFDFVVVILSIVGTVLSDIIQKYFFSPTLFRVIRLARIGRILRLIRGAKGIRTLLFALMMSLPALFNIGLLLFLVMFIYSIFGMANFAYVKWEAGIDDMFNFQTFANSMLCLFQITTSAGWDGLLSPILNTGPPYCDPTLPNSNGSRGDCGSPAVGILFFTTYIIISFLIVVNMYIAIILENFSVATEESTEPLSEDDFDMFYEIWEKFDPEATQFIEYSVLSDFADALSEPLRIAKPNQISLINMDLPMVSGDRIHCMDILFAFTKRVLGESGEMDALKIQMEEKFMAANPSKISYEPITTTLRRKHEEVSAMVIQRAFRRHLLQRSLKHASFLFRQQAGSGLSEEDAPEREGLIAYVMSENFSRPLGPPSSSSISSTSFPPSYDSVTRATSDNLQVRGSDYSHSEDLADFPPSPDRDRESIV
T3 sequence (Q15858 whole entry): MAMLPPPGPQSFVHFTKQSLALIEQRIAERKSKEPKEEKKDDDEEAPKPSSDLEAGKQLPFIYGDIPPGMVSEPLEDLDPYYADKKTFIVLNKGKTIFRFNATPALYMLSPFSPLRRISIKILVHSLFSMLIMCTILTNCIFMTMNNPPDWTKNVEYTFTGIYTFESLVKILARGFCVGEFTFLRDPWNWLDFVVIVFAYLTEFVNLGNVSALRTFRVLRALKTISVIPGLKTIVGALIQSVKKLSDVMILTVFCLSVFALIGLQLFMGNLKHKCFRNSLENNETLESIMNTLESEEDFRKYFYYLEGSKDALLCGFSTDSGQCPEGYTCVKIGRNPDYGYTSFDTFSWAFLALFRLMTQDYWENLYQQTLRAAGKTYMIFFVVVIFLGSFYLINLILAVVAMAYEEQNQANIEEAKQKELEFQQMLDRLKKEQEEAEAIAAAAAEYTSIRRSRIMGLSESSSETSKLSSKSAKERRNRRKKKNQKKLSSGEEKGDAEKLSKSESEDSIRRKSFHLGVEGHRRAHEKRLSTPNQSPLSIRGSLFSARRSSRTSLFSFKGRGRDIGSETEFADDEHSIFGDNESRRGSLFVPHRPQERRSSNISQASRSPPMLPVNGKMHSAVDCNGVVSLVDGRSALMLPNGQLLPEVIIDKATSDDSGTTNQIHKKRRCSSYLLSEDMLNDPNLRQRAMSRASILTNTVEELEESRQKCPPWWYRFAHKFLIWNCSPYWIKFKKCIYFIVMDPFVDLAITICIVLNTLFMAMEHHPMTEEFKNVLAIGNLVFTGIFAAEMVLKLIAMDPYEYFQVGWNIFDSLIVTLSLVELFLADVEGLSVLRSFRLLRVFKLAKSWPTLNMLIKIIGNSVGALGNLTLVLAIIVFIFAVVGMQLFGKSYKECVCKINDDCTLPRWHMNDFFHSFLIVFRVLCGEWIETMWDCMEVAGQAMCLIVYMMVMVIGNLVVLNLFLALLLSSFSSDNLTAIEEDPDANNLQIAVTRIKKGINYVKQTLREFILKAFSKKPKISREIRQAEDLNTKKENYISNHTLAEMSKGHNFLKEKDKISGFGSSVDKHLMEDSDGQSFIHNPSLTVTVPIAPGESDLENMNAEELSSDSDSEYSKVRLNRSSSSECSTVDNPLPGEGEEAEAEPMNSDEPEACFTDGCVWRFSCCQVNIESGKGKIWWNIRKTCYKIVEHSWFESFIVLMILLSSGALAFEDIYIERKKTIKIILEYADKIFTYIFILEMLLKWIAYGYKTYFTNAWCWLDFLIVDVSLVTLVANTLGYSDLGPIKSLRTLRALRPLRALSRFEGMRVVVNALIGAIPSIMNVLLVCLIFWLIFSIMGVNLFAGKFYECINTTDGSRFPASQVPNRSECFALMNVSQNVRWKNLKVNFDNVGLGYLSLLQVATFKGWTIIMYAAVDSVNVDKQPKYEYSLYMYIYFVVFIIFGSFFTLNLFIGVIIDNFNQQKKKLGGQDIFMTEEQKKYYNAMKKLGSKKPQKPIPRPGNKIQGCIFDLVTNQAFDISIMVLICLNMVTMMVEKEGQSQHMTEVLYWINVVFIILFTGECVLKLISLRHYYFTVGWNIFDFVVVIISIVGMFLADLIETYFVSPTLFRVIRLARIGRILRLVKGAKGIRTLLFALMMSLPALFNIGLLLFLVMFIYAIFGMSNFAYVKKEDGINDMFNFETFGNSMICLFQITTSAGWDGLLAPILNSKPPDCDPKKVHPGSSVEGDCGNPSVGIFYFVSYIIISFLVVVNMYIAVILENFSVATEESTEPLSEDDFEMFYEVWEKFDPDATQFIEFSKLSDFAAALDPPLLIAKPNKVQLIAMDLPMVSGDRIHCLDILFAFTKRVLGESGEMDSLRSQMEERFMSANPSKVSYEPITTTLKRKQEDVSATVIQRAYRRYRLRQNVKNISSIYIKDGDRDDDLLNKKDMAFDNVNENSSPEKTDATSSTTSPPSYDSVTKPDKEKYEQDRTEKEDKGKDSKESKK
T1 sequence (P63252 whole entry): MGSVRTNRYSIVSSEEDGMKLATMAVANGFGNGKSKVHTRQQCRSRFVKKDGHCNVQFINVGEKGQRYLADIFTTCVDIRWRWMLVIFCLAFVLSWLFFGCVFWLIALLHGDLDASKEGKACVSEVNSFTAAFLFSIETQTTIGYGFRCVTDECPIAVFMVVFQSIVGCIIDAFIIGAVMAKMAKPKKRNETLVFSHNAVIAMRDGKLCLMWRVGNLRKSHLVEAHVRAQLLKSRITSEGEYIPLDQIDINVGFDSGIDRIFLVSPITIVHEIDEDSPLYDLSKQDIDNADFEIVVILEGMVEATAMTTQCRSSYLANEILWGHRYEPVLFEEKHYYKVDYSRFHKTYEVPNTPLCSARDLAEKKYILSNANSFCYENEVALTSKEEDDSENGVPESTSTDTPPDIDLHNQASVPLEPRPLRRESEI
T7 sequence (Q09470 whole entry): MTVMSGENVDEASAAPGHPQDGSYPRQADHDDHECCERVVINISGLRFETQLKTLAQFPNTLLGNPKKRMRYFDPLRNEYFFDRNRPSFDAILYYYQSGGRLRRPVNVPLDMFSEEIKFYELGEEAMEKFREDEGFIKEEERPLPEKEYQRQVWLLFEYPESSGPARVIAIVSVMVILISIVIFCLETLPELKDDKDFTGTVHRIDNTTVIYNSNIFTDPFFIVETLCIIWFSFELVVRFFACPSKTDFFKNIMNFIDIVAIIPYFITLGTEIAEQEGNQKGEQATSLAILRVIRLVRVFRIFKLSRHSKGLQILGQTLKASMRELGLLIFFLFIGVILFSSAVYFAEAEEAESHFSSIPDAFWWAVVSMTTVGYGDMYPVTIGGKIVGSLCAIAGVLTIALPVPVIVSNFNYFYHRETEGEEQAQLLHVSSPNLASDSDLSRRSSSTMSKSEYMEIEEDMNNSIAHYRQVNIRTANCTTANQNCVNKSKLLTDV

Question: For “26 (GSVVIGQRCYRSPDCYSACKKLVGKATGKCTNGRCDC) [compound 26]”, which “Activity of GABA with peptide, expressed as a percentage of the reference compound” value (GABA; peptide at 0.2 μM) is on record?
Answer: 117%

Question: What about the “Activity of GABA with peptide (percentage of the reference compound)” value (GABA; peptide at 20 μM) of the same substance?
Answer: 106%

Question: And the “Activity of Kir2.1 with peptide, expressed as a percentage of the reference compound” value (Kir2.1; peptide at 0.2 μM)?
Answer: 102%

Question: What about the “Activity of Kir2.1 with peptide (percentage of the reference compound)” value (Kir2.1; peptide at 20 μM) of the same substance?
Answer: 93%

Question: And the “Activity of a4b2 with peptide, expressed as a percentage of the reference compound” value (α4β2; peptide at 0.2 μM)?
Answer: 85%

Question: What about the “Activity of a4b2 with peptide (percentage of the reference compound)” value (α4β2; peptide at 20 μM) of the same substance?
Answer: 89%

Question: What about the “Activity of Nav1.7 with peptide, expressed as a percentage of the reference compound” value (Nav1.7; [1]) of the same substance?
Answer: 81%

Question: What about the “Activity of Nav1.7 with peptide, expressed as a percentage of the reference compound” value (Nav1.7; [2]) of the same substance?
Answer: 74%

Question: What about the “Activity of Nav1.7 with peptide (percentage of the reference compound)” value (Nav1.7; [1]) of the same substance?
Answer: 73%

Question: And the “Activity of Nav1.7 with peptide (percentage of the reference compound)” value (Nav1.7; [2])?
Answer: 60%

Question: And the “Activity of Nav1.5 with peptide, expressed as a percentage of the reference compound” value (Nav1.5; [3])?
Answer: 92%

Question: What about the “Activity of Nav1.5 with peptide, expressed as a percentage of the reference compound” value (Nav1.5; [4]) of the same substance?
Answer: 91%

Question: What about the “Activity of Nav1.5 with peptide (percentage of the reference compound)” value (Nav1.5; [3]) of the same substance?
Answer: 90%

Question: What about the “Activity of Nav1.5 with peptide (percentage of the reference compound)” value (Nav1.5; [4]) of the same substance?
Answer: 94%

Question: What about the “Activity of hERG with peptide, expressed as a percentage of the reference compound” value (hERG; peptide at 0.2 μM) of the same substance?
Answer: 80%

Question: What about the “Activity of hERG with peptide (percentage of the reference compound)” value (hERG; peptide at 20 μM) of the same substance?
Answer: 74%

Question: What about the “Activity of a3b4 with peptide, expressed as a percentage of the reference compound” value (α3β4; peptide at 0.2 μM) of the same substance?
Answer: 88%

Question: And the “Activity of a3b4 with peptide (percentage of the reference compound)” value (α3β4; peptide at 20 μM)?
Answer: 91%

Question: And the “Activity of NR2A with peptide, expressed as a percentage of the reference compound” value (NR2A; peptide at 0.2 μM)?
Answer: 113%

Question: What about the “Activity of NR2A with peptide (percentage of the reference compound)” value (NR2A; peptide at 20 μM) of the same substance?
Answer: 114%

Question: What about the “Activity of Kv1.3 with peptide, expressed as a percentage of the reference compound” value (Kv1.3; peptide at 0.2 μM) of the same substance?
Answer: 94%

Question: And the “Activity of Kv1.3 with peptide (percentage of the reference compound)” value (Kv1.3; peptide at 20 μM)?
Answer: 77%

Question: What about the “Activity of Kv1.1 with peptide, expressed as a percentage of the reference compound” value (Kv1.1; peptide at 0.2 μM) of the same substance?
Answer: 66%

Question: And the “Activity of Kv1.1 with peptide (percentage of the reference compound)” value (Kv1.1; peptide at 20 μM)?
Answer: 85%

Question: And the “Activity of Kv1.2 with peptide, expressed as a percentage of the reference compound” value (Kv1.2; peptide at 0.2 μM)?
Answer: 79%

Question: And the “Activity of Kv1.2 with peptide (percentage of the reference compound)” value (Kv1.2; peptide at 20 μM)?
Answer: 47%

Question: What about the “Activity of NR2B with peptide, expressed as a percentage of the reference compound” value (NR2B; peptide at 0.2 μM) of the same substance?
Answer: 86%

Question: What about the “Activity of NR2B with peptide (percentage of the reference compound)” value (NR2B; peptide at 20 μM) of the same substance?
Answer: 79%

Question: And the “Activity of 5HT3a with peptide (percentage of the reference compound)” value (5HT3a)?
Answer: 96%

Question: What about the “Activity of 5HT3a with peptide, expressed as a percentage of the reference compound” value (5HT3a) of the same substance?
Answer: 82%

Question: What about the “Activity of TRPA1 with peptide, expressed as a percentage of the reference compound” value (TRPA1; peptide at 0.2 μM) of the same substance?
Answer: 109%

Question: And the “Activity of TRPA1 with peptide (percentage of the reference compound)” value (TRPA1; peptide at 20 μM)?
Answer: 115%

Question: What about the “Activity of Kv2.1 with peptide, expressed as a percentage of the reference compound” value (Kv2.1; peptide at 0.2 μM) of the same substance?
Answer: 98%

Question: What about the “Activity of Kv2.1 with peptide (percentage of the reference compound)” value (Kv2.1; peptide at 20 μM) of the same substance?
Answer: 102%

Question: And the “Activity of Cav2.2 with peptide, expressed as a percentage of the reference compound” value (Cav2.2; peptide at 0.2 μM)?
Answer: 103%

Question: And the “Activity of Cav2.2 with peptide (percentage of the reference compound)” value (Cav2.2; peptide at 20 μM)?
Answer: 121%

Question: And the “Activity of Cav2.1 with peptide, expressed as a percentage of the reference compound” value (Cav2.1; peptide at 0.2 μM)?
Answer: 115%

Question: What about the “Activity of Cav2.1 with peptide (percentage of the reference compound)” value (Cav2.1; peptide at 20 μM) of the same substance?
Answer: 85%

Question: And the “Activity of TRPV1 with peptide, expressed as a percentage of the reference compound” value (TRPV1; peptide at 0.2 μM)?
Answer: 116%

Question: And the “Activity of TRPV1 with peptide (percentage of the reference compound)” value (TRPV1; peptide at 20 μM)?
Answer: 92%
